Results: PMC5034309, “Real-time visualization of conformational changes within single MloK1 cyclic nucleotide-modulated channels” (Nature Communications, 2016)

Biological target: the molecule itself
Test: high-speed atomic force microscopy (HS-AFM); MloK1 2D crystals in lipid membrane adsorbed on mica; imaging buffer 10 mM Tris pH 7.4, 150 mM KCl, 100 uM cAMP; oscillating mode

B1: MloK1 cyclic nucleotide-modulated channel from Mesorhizobium loti (natural protein, UniProt Q98GN8 1-355, looked up)
chain: MSVLPFLRIYAPLNAVLAAPGLLAVAALTIPDMSGRSRLALAALLAVIWGAYLLQLAATLLKRRAGVVRDRTPKIAIDVLAVLVPLAAFLLDGSPDWSLYCAVWLLKPLRDSTFFPVLGRVLANEARNLIGVTTLFGVVLFAVALAAYVIERDIQPEKFGSIPQAMWWAVVTLSTTGYGDTIPQSFAGRVLAGAVMMSGIGIFGLWAGILATGFYQEVRRGDFVRNWQLVAAVPLFQKLGPAVLVEIVRALRARTVPAGAVICRIGEPGDRMFFVVEGSVSVATPNPVELGPGAFFGEMALISGEPRSATVSAATTVSLLSLHSADFQMLCSSSPEIAEIFRKTALERRGAAASA
notes: MloK1, cyclic nucleotide-modulated potassium channel of Mesorhizobium loti, full-length, wild type; The C-terminal hexahistidine tag was cleaved with thrombin after 2D crystallisation and before HS-AFM; Residues of the thrombin site may remain; also called wild-type MloK1; not shown: His6, C-terminal, cleaved
stoichiometry N: 4
